In patent publication US20240309093A1 (MINGHUI PHARMACEUTICAL HANGZHOU, published 2024):

Assays:
[1] = target: T1, recombinant human PD-1-his protein (human, UniProt Q15116 25-167); assay: ELISA (first round of humanization); PD-1-his coated 2 µg/mL, anti-human IgG Fc-HRP
T1 construct: also called hPD-1-his; not shown: his tag
Description: 96-well ELISA plates were coated with 2 μg/mL of recombinant human PD-1-his antigen protein at 30 μL/well at 4° C. overnight. The plates were washed three times with PBST. 5% PBS-Milk was added and incubated at room temperature for 2 h. The plates were washed three times with PBST. All the nanobody-Fc fusion proteins were subject to 3-fold gradient dilutions with an initial concentration of 10 μg/mL, added into each well at 30 μL/well, and incubated at room temperature for 1 hr. The plates were washed three times with PBST. The secondary antibody Goat-Anti-Human-IgG-Fc-HRP (purchased from Sigma) was diluted at 1:8000, added into each well at 30 μL/well, and incubated at room temperature for 50 min. The plates were washed three times with PBST. TMB (purchased from SurModics) was added into each well at 30 μL/well and developed at room temperature in dark for 1 min to 5 min. 2 M hydrochloric acid was added at 30 μL/well to stop the reaction. The OD450 absorbance value was read by a microplate reader.

[2] = target: T1, recombinant human PD-1-his protein; assay: SPR (Biacore 8K); PD-1-his amine-coupled to CM5, 1:1 Langmuir fit
Description: About 250RU of recombinant human PD-1-his protein was coupled to a CM5 chip at 25° C. using an amine coupling kit (GE Healthcare, Cat No. BR100050) according to standard amine coupling procedure. […] (five concentrations were detected). The binding time was 120 s, and the dissociation time was 600 s. The curve was fitted with 1:1 Langmuir binding model using Biacore®8K analysis software (BIAevaluation) to determine the kinetic constants thereof, such as, association rate constant, dissociation rate constant, equilibrium dissociation constant, etc.

[3] = target: T2, human PD-1 on HEK293 cells overexpressing human PD-1 (human, UniProt Q15116 25-288); assay: competitive flow cytometry on HEK293 cells overexpressing human PD-1; 1.0 µg/mL biotinylated human PD-L1 as competitor, PE-SA
T2 construct: whole, on cells; also called HEK293/hPD1; hPD-1
Description: The cells were harvested and washed once with test buffer. […] The data were analyzed using FCS Express 6 Plus and GraphPad Prism 5 software.

[4] = target: T3, recombinant mouse PD-1-his protein (mouse, UniProt Q02242 25-167, limits assumed); assay: ELISA; PD-1-his coated 2 µg/mL, anti-human IgG-HRP
T3 construct: not shown: his tag
T3 sequence (looked up): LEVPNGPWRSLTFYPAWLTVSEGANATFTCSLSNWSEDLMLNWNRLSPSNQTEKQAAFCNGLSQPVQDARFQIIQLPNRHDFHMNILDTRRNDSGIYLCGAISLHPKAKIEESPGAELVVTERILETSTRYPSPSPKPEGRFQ
Description: Ninety-six-well Greiner plates were coated with 2 μg/mL of recombinant human PD-1-his protein, recombinant monkey PD-1-his protein and recombinant mouse PD-1-his protein at 4° C. overnight. The next day, the plates were blocked with 1% casein. […] Then, the plates were washed with PBST. Anti-human IgG-HRP (diluted in 1% casein at 1:5000) was added and incubated for 1 hr., and binding detection was performed.

[5] = target: T2, human PD-1 on HEK293 cells …; assay: flow cytometry on HEK293 cells overexpressing human PD-1; PE-anti-human IgG
Description: HEK293 cells overexpressing the human PD-1 were cultured in a DMEM medium containing 10% FBS in a CO₂ incubator (37° C., 5% CO₂). The cells were harvested and washed once with test buffer. Cells were counted and detected for viability. […] The cells were washed with washing buffer, and 100 μL of PE-anti-human IgG was added in accordance with the instruction and incubated in dark at 4° C. for 1 hr. The cells were washed three times with washing buffer, and individual samples were re-suspended in 200 μL of PBS and detected by flow cytometer. The data were analyzed using FCS Express 6 Plus and GraphPad Prism 5 software.

[6] = target: T4, recombinant human PD-1 (C-Fc & C-Avi & C-6×His) (human, UniProt Q15116 25-167); assay: competitive ELISA; PD-L1 (C-Fc) coated, 0.5 µg/mL PD-1 (C-Fc & C-Avi & C-6×His), streptavidin-HRP
T4 construct: not shown: C-terminal Fc, Avi tag and 6×His tag
Description: The plates were blocked with 1% casein. […] The plates were washed with PBST between incubations. Horseradish peroxidase-labelled streptavidin (1:10000) was used for detection, and Graphpad Prism software was used to fit the curve and calculate the EC₅₀ value, with the results shown in Table 3.

T1 sequence (Q15116 25-167 limits assumed): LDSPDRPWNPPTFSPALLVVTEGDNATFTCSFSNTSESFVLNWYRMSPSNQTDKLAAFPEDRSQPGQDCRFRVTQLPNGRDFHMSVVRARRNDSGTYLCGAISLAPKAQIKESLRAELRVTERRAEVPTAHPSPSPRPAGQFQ
T2 sequence (Q15116 25-288): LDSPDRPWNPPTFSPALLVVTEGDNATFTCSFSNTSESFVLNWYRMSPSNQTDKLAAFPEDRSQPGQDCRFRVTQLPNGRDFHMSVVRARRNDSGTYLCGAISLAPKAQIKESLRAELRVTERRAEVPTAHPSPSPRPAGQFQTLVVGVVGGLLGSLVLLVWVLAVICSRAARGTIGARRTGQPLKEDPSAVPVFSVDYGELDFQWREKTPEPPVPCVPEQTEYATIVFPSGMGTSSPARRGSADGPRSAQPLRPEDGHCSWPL
T4 sequence (Q15116 25-167 limits assumed): as the sequence (Q15116 25-167 limits assumed) above

- EC50 [1]: 0.14 µg/mL
- Kd [2]: 0.0425 nM
- koff [2]: 1.95e-05 s⁻¹
- kon [2]: 460000 M⁻¹ s⁻¹
- EC50 [3]: 0.549 µg/mL
- EC50 [5]: 0.245 µg/mL
- EC50 [6]: 0.499 µg/mL
B1: MHPD1-A Fc (Fc fusion)
chain: QVQLVESGGGSVQVGGSLTLSCAASGSDPSIYAMGWFRQAPGKEHEFVAGIGWSAATTYYADSVKGRFGISRDNTKNTVALLMNSLKPEDTAIYYCAADLDHSGFDYWGQGTQVTVSS
notes: C-terminal of VHH directly connected to the N-terminal of the human Fc hinge region; also called nanobody-Fc fusion protein; fusion protein; not shown: human Fc fragment with hinge
- binding result [4]: no binding (tested: 5 µg/mL and 1.67 µg/mL)
